Data taken from paper PMC4752221, “Nuclear Export of Pre-Ribosomal Subunits Requires Dbp5, but Not as an RNA-Helicase as for mRNA Export” (PLoS ONE, 2016).

Target: T1, His-Mtr2+Mex67 heterodimer (S. cerevisiae, UniProt Q99257 1-599; P34232 1-184)
T1 construct: Mex67 of S. cerevisiae, co-expressed with His-Mtr2; Mtr2 of S. cerevisiae, His-tagged; also called His-Mtr2 and Mex67; Mex67-Mtr2; source: E. coli BL21 DE3, co-expressed, purified (Ni-NTA agarose)
T1 sequence (looked up) 1: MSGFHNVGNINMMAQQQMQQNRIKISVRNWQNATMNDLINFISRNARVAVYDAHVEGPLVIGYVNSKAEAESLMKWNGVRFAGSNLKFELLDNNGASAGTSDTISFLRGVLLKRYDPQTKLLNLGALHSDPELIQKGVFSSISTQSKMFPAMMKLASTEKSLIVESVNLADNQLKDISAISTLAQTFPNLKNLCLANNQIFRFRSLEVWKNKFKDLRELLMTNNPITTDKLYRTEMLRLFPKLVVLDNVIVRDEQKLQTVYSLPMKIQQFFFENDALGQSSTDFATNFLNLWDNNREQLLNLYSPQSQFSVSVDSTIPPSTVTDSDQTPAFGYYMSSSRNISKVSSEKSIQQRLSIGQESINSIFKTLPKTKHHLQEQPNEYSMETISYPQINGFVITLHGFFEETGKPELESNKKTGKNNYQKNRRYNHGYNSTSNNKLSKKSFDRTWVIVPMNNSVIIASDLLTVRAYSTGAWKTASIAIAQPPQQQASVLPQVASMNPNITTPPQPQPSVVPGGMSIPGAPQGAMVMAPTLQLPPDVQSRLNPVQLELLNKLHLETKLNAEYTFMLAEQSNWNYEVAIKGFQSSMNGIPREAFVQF
T1 sequence (looked up) 2: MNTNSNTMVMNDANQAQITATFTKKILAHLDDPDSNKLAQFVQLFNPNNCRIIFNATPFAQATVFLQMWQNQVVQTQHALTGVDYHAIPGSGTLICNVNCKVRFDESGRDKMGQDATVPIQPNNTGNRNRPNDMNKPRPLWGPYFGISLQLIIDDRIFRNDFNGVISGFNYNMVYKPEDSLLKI
Test: pull-down; 100 μg purified GST-Dbp5 (mixed with bacterial lysate) held on Glutathione Sepharose 4B beads, washed, then 28 μg purified His-Mtr2+Mex67 added, 1 h at 4°C; 20 mM HEPES pH7.5, 100 mM NaCl, 4 mM MgCl2, 10% Glycerol, 0.1% NP-40, 1 mM DTT; with or without 1 mM ATP and 0.2 mg/ml RNase A (binding increased by ATP, not influenced by RNase A); Western blot and Coomassie
Settings: both partners purified

binding result: binds
B1: GST-Dbp5 (natural protein, S. cerevisiae, UniProt P20449 1-482, looked up)
chain: MSDTKRDPADLLASLKIDNEKEDTSEVSTKETVKSQPEKTADSIKPAEKLVPKVEEKKTKQEDSNLISSEYEVKVKLADIQADPNSPLYSAKSFDELGLAPELLKGIYAMKFQKPSKIQERALPLLLHNPPRNMIAQSQSGTGKTAAFSLTMLTRVNPEDASPQAICLAPSRELARQTLEVVQEMGKFTKITSQLIVPDSFEKNKQINAQVIVGTPGTVLDLMRRKLMQLQKIKIFVLDEADNMLDQQGLGDQCIRVKRFLPKDTQLVLFSATFADAVRQYAKKIVPNANTLELQTNEVNVDAIKQLYMDCKNEADKFDVLTELYGLMTIGSSIIFVATKKTANVLYGKLKSEGHEVSILHGDLQTQERDRLIDDFREGRSKVLITTNVLARGIDIPTVSMVVNYDLPTLANGQADPATYIHRIGRTGRFGRKGVAISFVHDKNSFNILSAIQKYFGDIEMTRVPTDDWDEVEKIVKKVLKD
notes: Dbp5 (Rat8) of S. cerevisiae, GST-tagged, DBP5 in a pGEX backbone; also called recombinant GST-tagged Dbp5; source: E. coli Rosetta 2, purified (GSTrap 4B Glutathione Sepharose)
